Data published in US20210253724A1.

Tests used:
[1] = target: human 4-1BB (CD137) on Jurkat-hu4-1BB-NFκB-luc2 reporter cells (human) (UniProt Q07011); test: cell-based or functional assay; design: AUC of NFκB-luciferase activation curve, no FAP+ cells / AUC of NFκB-luciferase activation curve, with WM-266-4 cells: unit not given beside the values
[2] = target: human 4-1BB (CD137) on Jurkat-hu4-1BB-NFκB-luc2 reporter cells (human) (UniProt Q07011); test: cell-based or functional assay; design: AUC of NFκB-luciferase activation curve, no CEA+ cells / AUC of NFκB-luciferase activation curve, with CHO-k1-cynoCEACAM5 clone 8: unit not given beside the values
[3] = target: human CEACAM5 (CEA) on cells (human) (UniProt P06731); test: flow cytometry on MKN45 cells; design: unit not given beside the values
Sequence of human CEACAM5 (CEA) on cells (human) (P06731 35-685 E398K limits assumed): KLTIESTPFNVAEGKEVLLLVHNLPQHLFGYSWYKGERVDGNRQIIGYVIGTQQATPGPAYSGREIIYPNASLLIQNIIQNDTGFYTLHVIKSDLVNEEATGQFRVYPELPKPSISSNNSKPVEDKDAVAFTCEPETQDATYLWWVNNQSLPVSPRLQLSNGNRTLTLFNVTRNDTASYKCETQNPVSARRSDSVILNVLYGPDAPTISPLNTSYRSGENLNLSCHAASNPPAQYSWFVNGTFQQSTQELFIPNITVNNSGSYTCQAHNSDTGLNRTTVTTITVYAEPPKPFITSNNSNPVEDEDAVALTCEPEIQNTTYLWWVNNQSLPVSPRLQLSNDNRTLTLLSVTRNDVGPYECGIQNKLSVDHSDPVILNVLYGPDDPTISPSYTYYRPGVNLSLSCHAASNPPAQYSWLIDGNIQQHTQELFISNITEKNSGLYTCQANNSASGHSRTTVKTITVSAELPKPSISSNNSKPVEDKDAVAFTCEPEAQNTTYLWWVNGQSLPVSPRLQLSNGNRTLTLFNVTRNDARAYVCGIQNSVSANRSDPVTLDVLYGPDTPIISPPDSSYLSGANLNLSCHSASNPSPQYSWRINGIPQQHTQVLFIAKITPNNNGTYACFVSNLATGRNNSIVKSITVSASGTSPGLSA

[4] = target: cynomolgus monkey CEACAM5 on CHO-k1-cynoCEACAM5 clone 8 cells (cynomolgus monkey); test: flow cytometry on CHO-k1-cynoCEACAM5 clone 8; design: unit not given beside the values
[5] = target: human FAP on NIH/3T3-huFAP clone 19 cells (human) (UniProt Q12884); test: flow cytometry on NIH/3T3-huFAP clone 19 cells
[6] = target: human CEACAM5 (CEA) on cells (human) (UniProt P06731); test: flow cytometry on CHO-k1-humanCEACAM5 clone 11
[7] = target: human CEACAM5 (CEA) on cells (human) (UniProt P06731); test: flow cytometry on CHO-k1-humanCEACAM5 clone 12
[8] = target: human CEACAM5 (CEA) on cells (human) (UniProt P06731); test: flow cytometry on CHO-k1-humanCEACAM5 clone 13

AUC of NFκB-luciferase activation curve, no FAP+ cells [1]: 286
AUC of NFκB-luciferase activation curve, with NIH/3T3-huFAP clone 19 cells [1]: 521
AUC of NFκB-luciferase activation curve, with WM-266-4 cells [1]: 384
AUC of NFκB-luciferase activation curve, no CEA+ cells [2]: 47
AUC of NFκB-luciferase activation curve, with CHO-k1-cynoCEACAM5 clone 8 [2]: 77
AUC of NFκB-luciferase activation curve, with CHO-k1-humanCEACAM5 clone 11 [2]: 264
AUC of NFκB-luciferase activation curve, with CHO-k1-humanCEACAM5 clone 12 [2]: 313
AUC [3]: 420
AUC [4]: 219
AUC [5]: 362
EC50 [5]: 2.29 nM
AUC [6]: 746
AUC [7]: 1190
AUC [8]: 1870
Substance: Untargeted (DP47) huIgG1 P329GLALA (antibody)
